# Assay: yeast display, Sf9 membrane polyspecificity reagent, FACS + sequencing; frameworks hold sequencing errors
# How it was run: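 Nanobodies from a synthetic yeast display library (Saccharomyces cerevisiae BJ5465), induced 36–48 hours with galactose, were stained 1 hour at 4 °C with 10% biotinylated, detergent-solubilized Sf9 membrane reagent, enriched on streptavidin microbeads, then FACS-sorted. Anti-HA (expression) and streptavidin (reagent binding) fluorescence set low and high (top ~1%) gates. Polyreactivity labels come from the gate of origin. Genes were colony-PCR amplified, MiSeq 2 × 250 sequenced and filtered by CDR length.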
row,Sequence,polyreactivity (PSR sort gate)
1,QVQLVESGGGLVQAGGSLRLSCAASGGIFIYNAMGWYRQAPGKEREFVAAINISGGNTYYADSVKGRFTISRDNAKNTVYLQMNSLKPEDTAVYYCAKSGRYGFWGQGTQVTVSS,high polyreactivity
2,QVQLEESGGGLVQGGGSLRLSCAGSGRIFQLNAMGRYRQAPGIERELVADIRWSSGSTYYADTVKGRFTISRDNAKNSVYFQMYSLKPEDTAVYFCAGRVLYVHRQVYKMDYWGQGTQVTVSS,high polyreactivity
3,QVQLVESGGGLVQAGGSLRLSCAASGRTFPVYAMGWYRQAPGKERELVAAITRSDDSTYYADSVKGRFTISRDNAKNTVYLQMNSLKPEDTAVYYCARRSRESYEYDYWGQGTQVTVSS,low polyreactivity
4,HVQLVESGGGLVQAGGSHRLICASSGFTIYYAIAWYRQAPGKESELVASISANGGSTYYADSVKGRFTISRDNAKNTVYLQMNSLKPEDTAVYYCAARGLSGQRRYYWGQGTQVTVSS,high polyreactivity
5,QFQLVESGGGLVQAGGSLRLSCAASGSTFEKNAMGWYRQAPGKERDLVDAISNGVSTYYADSVKGRFTISRDNAKNSVFLQMISLKPEDTAVYFCAADLFFGAETVYYDKFDYWGQGTKVTVSS,low polyreactivity
6,QVQLVESGGCLVQAGGSLRLSCAASGFTFQKYAMGWYRQAPGKERELVAAISWSGSSTYYADSVKGRFTISRDNAKNTVYLQMNSLKPEDTAFYYCAADSYYIQERDYWGQGTQVTVSS,high polyreactivity
7,QGQLVESGGCLVQAGGSLRLSCAASGSIFSENTMGWYRQAPGKKRELVADITSGGSTNYADSVKGRFTSSRDNAKYTVYLQMNSLIPEDTEVYYCAADYNGEYDYWGQGTLVTVSS,low polyreactivity
8,QVQLVESGGGLVQAGVSLRLSCAASGRTFRFYAMGWYRQAPGKERELVAAITGSGGSTYYADSVKGRFTISRDNAKNTVYLQMNCLKPEDTAVYYCAASRWREYHASKMDYWGQGTQVTVSS,low polyreactivity
9,QVQLVESWGGLVQAGGSLRLSCAASGSTFAVNAMGCYRQAPGKERELVDAITVSGGSTDYAYSVKRPFTISRDNAKYSVYLQLNRLKPEDTGVYYCADVRMKYYIYGGYDYWGQGTQVNVSS,low polyreactivity
10,QDQLVESGGGLVQAGGSLRLSCAASGSSFFSNAMGWYRPAPGKERELVAAITSTGGSTYYADSVKGRFTISRDHAKNTVYLQMNSLKPEDTAVYYCAAASRRGYYYWGQGTQVTVSS,high polyreactivity
11,QDQLVESGGGLVQAGGSLRLSCAASGFIIIGNAMGWYRQAPGKERELVAAISRRGGSTYYADSVKGRFTISRDHAKNTVYLQMNSLKPEDTALYYCNALTRRQKGGEGGGYWGQGTQVTVSS,high polyreactivity
12,QVQLVESGGGLVQAGGSLRLSCAASGSTFPYNVMGWYRQAPGKEREFVAAISSSSGSTYYADSVKGRFTISRDNAKNTVYLQMNSLKPEDTAVYYCARRHPRQRQDGKVDYWGQGTQVTVSS,low polyreactivity
13,QVQLVESGGGLVQAGGSLRLSCAASGLILVGNTMGWYRQAPGKERELVATITSGGRTYYADSVKGRFTISRDNAKNTVYLQMNSLKPEDTAVYYCAKRAFSYVGGQQDRKENYYYWGQGTQVTVSS,high polyreactivity
14,QVHLVESGGGLVQAGGSLRLSCASSGSIFRYNTMGWYRQAPGKERELVAAIRGDGSTNYADSVKGRFTISRDNAKNTVYLQMNSLKPEDTAVYYCAVNLRGYRYAYDYWGQGTKVTVSS,low polyreactivity
15,QDQLVESVGGLVQAGGSLRLSCAASVRIFYWNAIGWYRQATGKESELVATITRGDRTYYADSVKGRFTISRDNAKNTVYLQMNSLKPEDTAVYYCARSSNPYFYGMYYWGQGTQVTVSS,high polyreactivity
16,QVQLVESGGGLVQAGGSLRLSCAASGSIFYYNSMGWYRKAPGKEREFVAAISARGGSTYYADSVKGRFTISRDNAKNTVYLQLNSLKPEDSAVYYCAASWGMGTYSDSTFWGGYYYWGQGTQVTVSS,low polyreactivity
17,QVQLEESGGGLVQAGGSLRLSCGASGFTFRGYAMGWYIQAPGKERELVAAISKRGGSTYYADSVKGRFTISRDNAKNTVYLQMNSLKPEDTAVYYGAAEDTVYWGGVYYWTVYYWGQGTQVNVSS,high polyreactivity
18,QVQLVESGGGLVQAGGSLRLSWAASGSIFDENAMGLSRQAPGKERELVAAISRSTGSTYYADSVKGRFTISRDKAKNTVYVQMNSLKPEDTAVYYCNALTYLRGPPWYTLDYWGQGTQVTVSS,low polyreactivity
19,QVQLQESGGGLVQAGGTLRLSCAASGSFSADEDMGWYRQAQGKEREFVAGISVGGNTNYADSVKGRFTISRENAKNTVYLQINSLKPEDTAVYYCAVLQDVYDALDYWAQGTQVTVSS,high polyreactivity
20,QVQLVESGGGLVQAGGSLRLSCAASGSIFLIYAMGWYRQAPGKERELVAAISSGGSTYYADSVKGRFTISRDNAKNTVYLQMNSLKPEDTAVYYCATYSTSVAFHLYYWGQGTQVTVSS,low polyreactivity

row,Sequence,polyreactivity (PSR sort gate)
1,QVQLVESGGGLVQAGGSLRLSCAASGFTYRKYALGWYRQAPGKERELVAVINIVGSTYYADSVKGRFTISRDNAKNTVYLQMYSLTPEDTAVYYCAADWSYRLKYYWYGGFKYWGQGTQVTVSS,high polyreactivity
2,QVQLLESGGGLVQAGGSLRLSCSASGITFFVYDMGWYRQAPGKERDLVAAITWAGDSTYYADSVKGRFTISRDNAKNTVYLQMNSLKPEDTAVYYCAAQFDVYYSRQPYDYNRSGYWGQGTQVTVSS,low polyreactivity
3,QVQLVESGGGLVQAGGSLRLSCAASGRIYDVYAMGWYRQAPRKERELVATITGSGGGTYYADSVKGRFTISRDNAKNTVYLQMNSLKPEDTAVYYCAADYYPTYAYYVSNVGYDYWGQGTQVNVSS,low polyreactivity
4,QVQLVESGGGLVQAGGSLRLSCAASGITFPHYAMGWYRQAPGKERELVAAISSSGGRTYYADSVKGRFTISRDNAKNTVYFQMNSLKPEDTAVYYCNKLRYPLLPPKYYYWGQGTQVTVSS,high polyreactivity
5,QVQLVESGGGLVQAGGSLLLSCAASGIIFGTNAMGWYRQAPGKERELVAGITSSGDSTYYADSVKGRFTISRDNAKNTVYLQMNSLKPEDTAVYYCAREIRTREFDSWGQGTQVTVSS,low polyreactivity
6,QVQLVESGGGLVQAGGSLRLSCAASGRTFRYYAMGWYRQPPGKERELVATITGSGGSTYYADSVKGRFTISRDNAKNTVYVQMNSLKPEDTAVYDCNARKVRYPYRWYDYWGQGTQVTVSS,high polyreactivity
7,QVQLVESGGGLVHAGGSLRLSCAASGSILARYARGWYRQEPGKERELVAAISSRGGSTYYADSVKGRFTISRDYAKNTVYLQMNSLKPEDTAVYYCAASVYLQVEYDYWGQGTQVTVSS,low polyreactivity
8,QVQLVESGGGLVQAGGSLRLSCAASGYTFDKYVMGWYRQAPGKERELVAAISRSGGRTYYADSVKGRFTISRDNAKNTVYLQMNSLKPEDTAVYYCNALWFYNGLSYEYWGQGTQVTVSS,high polyreactivity
9,QVQLVESDGGLVQAGGSLRLSCAASGYIFGGYAMRWYRHAPGKERELVAAISYGVGSTYYADSVKGRFTISRDNAKNTVYLQMNSLKPEDTAVYYCAADVFFYVYEAYLLYYWGQGTQVTVSS,low polyreactivity
10,QVQLVESGGGLVQAGGSLRLSCAASGSIIRKYAMGCYRPAPGKERELVAAITSGGRTYYADSVKGRFTISRDNAKNTVYLQMNSLKPEDTAVYYCNARVRGYYEYNYWGQGTQVTVSS,high polyreactivity
11,QVHLVESGGGLVQAGGILRLSCAASGRTFPGYAMGWYRQAPGKERELVAAITYTGGDTHYADSVKGRFTISRDNAKNTVYLQMNSLKPEDTAVYYCAAVYYRGIQSYDYWGQGTQVTVSS,low polyreactivity
12,QVQLVESGGGLVQAGGSLRLSCDASGSTSSKYAMGWYRQAPGKEWQLVATISWRTGSTYYADSVKGRFTISRDNAKNTVYLEMNSLKPEETAVYYCNARVAGRRKYDYWGQGTQVTVSS,high polyreactivity
13,QVQLVESGGGLVQAGGSLRLSCAASGFIFPEYAMGWYRQAPGKERELVAAINWSGGNTYYADSVKGSFTISRDNAKNTVYLQMNSLKPEDTAVYYCNVDDWVTDDDYWGQGTQVTVSS,low polyreactivity
14,QVQLVESGGGLVQAGGSLRLSCAASGRIFSLYAMGWYRQAPGKEREFVAAISKSSGGTYYADSVKGRFTISRDNAKNTVYLQMNSLKPKDTAVYYCNARFVIGWVRKLDYWGQGTQVTVSS,high polyreactivity
15,QVQLVESGGGLVQAGGTLRLSCAASGRIFDGNTMGWDRQAPGKERELVAAIRSRGDRTYYADSVKGRFTISRDNAKNTVYLQMNSLKPEDTAVYYCAAQPSWYKPKGSWFEKGLYDYWGQGTQVTVSS,low polyreactivity
16,QVQLQESGGGLEQAGGSLRKSCAANGNIFDADIVGRYRQAPGKKPELVDSITDGGITNYADSVKGRFTISRDNAKYTVYLQMNIQNPEDTAVYYCASIAYPDIPTFFDYYSYFFYWGQGTQVTVSS,high polyreactivity
17,QVQLVESGGGLVQAGGSLRLSCAASGFTYNRYAMGWYRQAPGKERELVAGISWGGGSTYYADSVKGRFTISRDNAKNTVYLQMNSLKPEDTAVYYCAAGWQHYRRYGSYDYWGQGTQVTVSS,high polyreactivity
18,QVQLVESGGGLVQAGGFLRLSCASSGSTFIYYAMGWYREAPGKERELVAAISWSGGRTYYADAVKGRFTISRDNAKNTVYLQMTSLKPEDTAVDYCAAESYYSDGYPGVDYWGQATQVTVSS,high polyreactivity
19,QVQLVESGGGLVQAGGSLRLSCAASGRTFYLYTMGWYRQAPGKERELVAGISWSGGSTYADSVKGRFTISRDNAKNTVYLQMNSLKPEDTAVYYCAAEVYYGYDYWGQGTQVTVSS,low polyreactivity
20,QVQLVESGGGLVQAGGSLRLSCAASGRTFKAYAMGWYRQAPGKERELVAAISYSTTSTYYADSVKGRFTISRDNAKNTVYLQMNSLKPEDTAVYYCAVDYIIWYDGYLLYYWGQGTQVTVSS,low polyreactivity
